Test results published in article PMC10747570.

Molecular target: Hibiscus green spot virus movement protein BMB2 (Hibiscus green spot virus)
Assay: FRET or BRET; FRET-FLIM: GFP fluorescence lifetime measured in PAMBs of N. benthamiana leaf cells coexpressing BMB2-GFP (donor) and BMB2-mRFP (acceptor), 3 dpi; control without acceptor: BMB2-GFP with non-fused BMB2

Substance: Hibiscus green spot virus movement protein BMB2 (natural protein)
- FRET efficiency: 69.8%
- GFP excited-state lifetime with the acceptor: 0.74 ns
